From the supplement of paper PMC7125110
± gives the standard error. For some of these results: Variants at the floor of the assay were thinned out.

B1: glmS ribozyme (parent)
chain: AUAAAAGCGCCAGAACUACAGAAAUGUAGUUGACGAGGAGGAGGUUUAUCGAAUUUUCGGCGGAUGCCUCCAAA

Assays:
Details in all cases: with glucosamine-6-phosphate
[1] = variants of: B1; assay: kcat; higher = faster cleavage; RNA array
Procedure, shortened: (§1)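 Weighted Michaelis–Menten fits across concentrations supplied kcat and KM, based on kobs from one- or two-exponential decay fits to normalised per-tile medians. The data came from barcoded ribozyme variants transcribed in situ by E. coli RNA polymerase on sequenced MiSeq chips and tracked at 37 °C by a hybridised Cy3 probe. Glucosamine-6-phosphate (40 μM to 10 mM) in HEPES/KCl/Mg(OAc)2 buffer was flowed in.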

[2] = variants of: B1; assay: self-cleavage kobs at 40 uM GlcN6P; higher = faster cleavage; RNA array
Procedure, shortened: as §1

[3] = variants of: B1; assay: KM; higher = weaker cofactor use; RNA array
Procedure, shortened: as §1

[4] = variants of: B1; assay: self-cleavage kobs at 160 uM GlcN6P; higher = faster cleavage; RNA array
Procedure, shortened: as §1

[5] = variants of: B1; assay: self-cleavage kobs at 640 uM GlcN6P; higher = faster cleavage; RNA array
Procedure, shortened: as §1

[6] = variants of: B1; assay: self-cleavage kobs at 2500 uM GlcN6P; higher = faster cleavage; RNA array
Procedure, shortened: as §1

[7] = variants of: B1; assay: self-cleavage kobs at 10000 uM GlcN6P; higher = faster cleavage; RNA array
Procedure, shortened: as §1

Variant | kcat [1] | self-cleavage kobs at 40 uM GlcN6P [2] | KM [3] | self-cleavage kobs at 160 uM GlcN6P [4] | self-cleavage kobs at 640 uM GlcN6P [5] | self-cleavage kobs at 2500 uM GlcN6P [6] | self-cleavage kobs at 10000 uM GlcN6P [7]
U55C C70A | 1.26e-05 ± 1.6e-06 s⁻¹ | < 1e-05 s⁻¹ | – | – | – | – | –
U55C C70U | 0.00171 ± 0.00048 s⁻¹ | 2.44e-05 ± 9e-06 s⁻¹ | 5960 ± 3000 µM | 7.16e-05 ± 3e-05 s⁻¹ | 0.000172 ± 4.7e-05 s⁻¹ | 0.000413 ± 8.4e-05 s⁻¹ | 0.00111 ± 0.00012 s⁻¹
G59A U65C | 1.55e-05 ± 5.6e-06 s⁻¹ | – | – | – | – | – | –
U55G G59C | 1.2e-05 ± 2.5e-06 s⁻¹ | – | – | – | – | – | –
U57G C58G C68U | 4.52e-05 ± 1.6e-05 s⁻¹ | – | – | – | 7.15e-05 ± 2.1e-05 s⁻¹ | – | –
C61G C67G | 1.22e-05 ± 1.5e-06 s⁻¹ | – | – | – | – | – | –
C58U C70A | 2.29e-05 ± 6.9e-06 s⁻¹ | – | – | – | 3.84e-05 ± 1.4e-05 s⁻¹ | – | –
C61U C70U | 3.98e-05 ± 5.3e-06 s⁻¹ | – | – | – | – | 3.31e-05 ± 1e-05 s⁻¹ | 3.47e-05 ± 6e-06 s⁻¹
G60A G63C | < 1e-05 s⁻¹ | – | – | < 1e-05 s⁻¹ | – | < 1e-05 s⁻¹ | < 1e-05 s⁻¹
U55G G66A | 0.0134 ± 0.004 s⁻¹ | 0.000461 ± 7.7e-05 s⁻¹ | 1790 ± 770 µM | 0.000877 ± 0.00021 s⁻¹ | 0.00303 ± 0.00072 s⁻¹ | 0.00661 ± 0.0022 s⁻¹ | 0.0124 ± 0.002 s⁻¹
C58A A64G C71A | 2.69e-05 ± 7.4e-06 s⁻¹ | – | – | – | – | – | –
U54G G66U | 0.00193 ± 0.00025 s⁻¹ | 5.67e-05 ± 5.9e-06 s⁻¹ | 1570 ± 340 µM | 0.000183 ± 2.7e-05 s⁻¹ | 0.000509 ± 4.8e-05 s⁻¹ | 0.000956 ± 0.00014 s⁻¹ | 0.00181 ± 0.00013 s⁻¹
U54A U55A | 0.044 ± 0.016 s⁻¹ | 0.00147 ± 0.00017 s⁻¹ | 1290 ± 540 µM | 0.00297 ± 0.001 s⁻¹ | – | – | 0.0388 ± 0.0094 s⁻¹
C58U G66C | < 1e-05 s⁻¹ | – | – | < 1e-05 s⁻¹ | < 1e-05 s⁻¹ | – | –
U57A C68G | 3.34e-05 ± 1.3e-05 s⁻¹ | – | – | – | 6.21e-05 ± 1.7e-05 s⁻¹ | 4.55e-05 ± 1.7e-05 s⁻¹ | –
U55G U69C | 0.000334 ± 4.6e-05 s⁻¹ | 0.000197 ± 4.3e-05 s⁻¹ | – | 0.000229 ± 6.1e-05 s⁻¹ | 0.000303 ± 6.9e-05 s⁻¹ | 0.000289 ± 6.4e-05 s⁻¹ | 0.000457 ± 8e-05 s⁻¹
U55G U69G | 7.83e-05 ± 1.5e-05 s⁻¹ | – | – | 8.02e-05 ± 1.9e-05 s⁻¹ | 8.9e-05 ± 1.9e-05 s⁻¹ | – | 6.23e-05 ± 1.7e-05 s⁻¹
U57A C67G | 5.87e-05 ± 1.1e-05 s⁻¹ | – | – | – | 5.39e-05 ± 1.5e-05 s⁻¹ | 3.77e-05 ± 1.1e-05 s⁻¹ | 7.6e-05 ± 1.1e-05 s⁻¹
U54C U65C | 0.000618 ± 0.00021 s⁻¹ | – | – | – | 0.000249 ± 6.5e-05 s⁻¹ | 0.000743 ± 0.00016 s⁻¹ | 0.000465 ± 0.00013 s⁻¹

Variant | kcat [1] | self-cleavage kobs at 40 uM GlcN6P [2] | KM [3] | self-cleavage kobs at 160 uM GlcN6P [4] | self-cleavage kobs at 640 uM GlcN6P [5] | self-cleavage kobs at 2500 uM GlcN6P [6] | self-cleavage kobs at 10000 uM GlcN6P [7]
U54G U56A G66A | 0.00395 ± 0.00074 s⁻¹ | 0.000108 ± 1.7e-05 s⁻¹ | 1470 ± 370 µM | 0.000344 ± 5.5e-05 s⁻¹ | 0.00162 ± 0.00028 s⁻¹ | 0.00236 ± 0.00049 s⁻¹ | 0.00335 ± 0.00067 s⁻¹
U54G U69G | 7.3e-05 ± 1.5e-05 s⁻¹ | 3.86e-05 ± 1.3e-05 s⁻¹ | – | 8.46e-05 ± 2.2e-05 s⁻¹ | 9.61e-05 ± 1.4e-05 s⁻¹ | 8.77e-05 ± 1.5e-05 s⁻¹ | 4.86e-05 ± 1.1e-05 s⁻¹
C58A G66A | 0.000322 ± 5.8e-05 s⁻¹ | – | 4640 ± 1500 µM | – | 4.87e-05 ± 1e-05 s⁻¹ | 9.9e-05 ± 1.6e-05 s⁻¹ | 0.000228 ± 2.8e-05 s⁻¹
C58U U69G | 4.53e-05 ± 1.7e-05 s⁻¹ | 2.63e-05 ± 1.1e-05 s⁻¹ | – | 5.15e-05 ± 1.5e-05 s⁻¹ | 6.7e-05 ± 1.6e-05 s⁻¹ | 7.55e-05 ± 1.9e-05 s⁻¹ | –
G59A C67U | 4.36e-05 ± 1.3e-05 s⁻¹ | – | – | – | – | – | 3.54e-05 ± 9.1e-06 s⁻¹
C58A C68G | 3.84e-05 ± 1.3e-05 s⁻¹ | – | – | 4.34e-05 ± 1.2e-05 s⁻¹ | 6.18e-05 ± 1.1e-05 s⁻¹ | 4.14e-05 ± 1.2e-05 s⁻¹ | –
C58A C68A | 3.68e-05 ± 1.1e-05 s⁻¹ | – | – | 4.01e-05 ± 1.7e-05 s⁻¹ | 5.26e-05 ± 1.6e-05 s⁻¹ | 3.75e-05 ± 1.7e-05 s⁻¹ | –
U56C G66A | 0.00312 ± 0.0012 s⁻¹ | 6.93e-05 ± 1.3e-05 s⁻¹ | – | 8.16e-05 ± 1.9e-05 s⁻¹ | 0.000501 ± 8.4e-05 s⁻¹ | 0.00117 ± 0.00022 s⁻¹ | 0.0022 ± 0.00026 s⁻¹
G62C U69G | 1.62e-05 ± 2.9e-06 s⁻¹ | – | – | – | – | – | –
U55A A64U | 0.000202 ± 3.2e-05 s⁻¹ | < 1e-05 s⁻¹ | 4540 ± 1600 µM | – | – | 7.6e-05 ± 1.1e-05 s⁻¹ | 0.000138 ± 1.5e-05 s⁻¹
U54G C71G | 0.00104 ± 0.00019 s⁻¹ | 8.73e-05 ± 8.8e-06 s⁻¹ | 511 ± 150 µM | 0.000192 ± 4.6e-05 s⁻¹ | 0.000398 ± 9e-05 s⁻¹ | 0.000909 ± 0.0002 s⁻¹ | 0.0011 ± 0.00012 s⁻¹
U55C U65C | 0.000217 ± 5e-05 s⁻¹ | – | – | – | 7.31e-05 ± 1.1e-05 s⁻¹ | 0.00011 ± 1.9e-05 s⁻¹ | 0.000217 ± 3.1e-05 s⁻¹
U57G C68A | 2.56e-05 ± 8.2e-06 s⁻¹ | – | – | – | 3.37e-05 ± 1.4e-05 s⁻¹ | – | –
U55C U57G | 3.92e-05 ± 2.9e-06 s⁻¹ | < 1e-05 s⁻¹ | 840 ± 320 µM | < 1e-05 s⁻¹ | – | 2.98e-05 ± 1.5e-05 s⁻¹ | –
U55C U69A | 1.74e-05 ± 6.8e-06 s⁻¹ | – | – | – | – | – | –
C58U C61A | 6.3e-05 ± 2.6e-05 s⁻¹ | – | – | 6.42e-05 ± 1.7e-05 s⁻¹ | 0.000108 ± 3.4e-05 s⁻¹ | 7.93e-05 ± 1.5e-05 s⁻¹ | –
U56A U65C | 0.00025 ± 5.7e-05 s⁻¹ | – | – | – | 0.000242 ± 6.3e-05 s⁻¹ | 0.000177 ± 4.4e-05 s⁻¹ | 0.000248 ± 4.7e-05 s⁻¹
U56A U65A | 0.00156 ± 0.00058 s⁻¹ | 4.51e-05 ± 1.1e-05 s⁻¹ | – | 7.79e-05 ± 1.3e-05 s⁻¹ | 0.000368 ± 5.1e-05 s⁻¹ | 0.000569 ± 9.2e-05 s⁻¹ | 0.00148 ± 0.00021 s⁻¹
